Assay results from PMC2597217.

B1: IRE (dsDNA)
DNA 1: TGGTTTGTTTTGCTTG
DNA 2: CAAGCAAAACAAACCA
B2: DBE1 (dsDNA)
DNA 1: TGGTTTGTTTACCTTG
DNA 2: CAAGGTAAACAAACCA
B3: DBE2 (dsDNA)
DNA 1: TCTTGTTTACATTTTG
DNA 2: CAAAATGTAAACAAGA

Legend:
FoxO1 DBD 151-256 = FoxO1 DBD 151-256 (human, UniProt Q12778 151-256); experiment: EMSA
FoxO1 DBD 151-266 [1] = target: T1, FoxO1 DBD 151-266 (human, UniProt Q12778 151-266); experiment: crystal structure
FoxO1 DBD 151-266 [2] = target: T1, FoxO1 DBD 151-266; experiment: EMSA

T1 sequence (Q12778 151-266): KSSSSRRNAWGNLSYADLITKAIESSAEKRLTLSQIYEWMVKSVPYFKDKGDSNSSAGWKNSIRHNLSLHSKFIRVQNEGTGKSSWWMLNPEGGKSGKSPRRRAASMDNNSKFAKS
Sequence of FoxO1 DBD 151-256 (Q12778 151-256): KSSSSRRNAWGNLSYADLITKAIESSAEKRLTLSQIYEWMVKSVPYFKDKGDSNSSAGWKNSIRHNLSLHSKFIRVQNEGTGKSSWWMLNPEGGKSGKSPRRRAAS

Binder | binding result (FoxO1 DBD 151-256) | binding result (FoxO1 DBD 151-266 [1]) | binding signal (FoxO1 DBD 151-266 [2])
B1 | binds | binds | –
B2 | – | – | 2 fold affinity vs IRE
B3 | – | – | 5 fold affinity vs DBE1
